This note sets out measurements from publication PMC3570234 (Molecular pharmaceutics, 2012).

This data set concerns the molecule itself. In words: MALDI-ToF MS.

B1: Superoxide dismutase 1 (SOD1) from bovine erythrocytes (enzyme)
chain: not shown
B1: the binding result was “binds”.
